Legend:
[1] = molecular target: T1, bovine serum albumin (BSA) (bovine, UniProt P02769 25-607); assay: indirect EIA, compounds coated on microtiter plates, clonal supernatant, goat anti-mouse IgG HRP detection
T1 construct: Unconjugated carrier protein used as a screening control; also called carrier protein
Description: (§1) An assay was developed to screen the Mabs for reactivity to the FTC conjugates. Microtiter plates were coated with the following reagents: FTC-peptide-dextran, FTC-peptide, FTC-peptide-LPH, FTC-peptide-BSA, FTC heptanoic acid, peptide only, peptide-LPH, peptide-BSA, BSA, LPH, and normal mouse serum (NMS). All compounds were diluted into sodium bicarbonate buffer, pH 9.6, to a concentration of 5 ug/ml; NMS was diluted 1:15. One hundred microliters of each solution was added to a column of the microtiter plate such that each row of the plate allowed the testing of a single clonal supernatant against all of the compounds in a single run. Plates were incubated at 4° C. overnight and then washed 3× with phosphate-buffered saline (PBS) containing 0.05% Tween 20 (PBS-T). Plates were blocked with PBS containing 0.5% nonfat dry milk for 1 hour at 37° C., washed 3×, and dried at 37° C. for 30 minutes. Prepared plates were covered with an adhesive seal, placed into a moisture resistant bag, and stored in a dessicant chamber at 20-24° C. until use.

[2] = molecular target: T2, limulus polyphemus hemocyanin II (LPH) (Limulus polyphemus, UniProt P04253 1-628, limits assumed); assay: as above
T2 construct: Unconjugated carrier protein used as a screening control; also called carrier protein
T2 sequence (looked up): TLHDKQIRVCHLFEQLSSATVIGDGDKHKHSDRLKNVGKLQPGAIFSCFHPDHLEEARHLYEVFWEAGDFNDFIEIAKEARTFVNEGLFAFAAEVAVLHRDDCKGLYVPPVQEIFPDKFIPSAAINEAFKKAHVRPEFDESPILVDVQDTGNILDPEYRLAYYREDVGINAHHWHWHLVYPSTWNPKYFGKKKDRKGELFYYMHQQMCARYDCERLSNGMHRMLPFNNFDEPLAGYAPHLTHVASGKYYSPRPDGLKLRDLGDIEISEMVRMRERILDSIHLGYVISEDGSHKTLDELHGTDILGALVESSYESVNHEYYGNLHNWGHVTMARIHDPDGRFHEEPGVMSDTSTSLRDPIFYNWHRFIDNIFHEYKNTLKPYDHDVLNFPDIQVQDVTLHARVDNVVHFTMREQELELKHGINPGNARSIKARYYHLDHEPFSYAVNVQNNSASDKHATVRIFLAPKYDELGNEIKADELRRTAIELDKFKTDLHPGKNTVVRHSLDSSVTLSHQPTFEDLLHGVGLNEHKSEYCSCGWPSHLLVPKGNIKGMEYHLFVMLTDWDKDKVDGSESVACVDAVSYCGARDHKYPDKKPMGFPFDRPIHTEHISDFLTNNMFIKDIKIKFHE
Description: as §1

T1 sequence (P02769 25-607 limits assumed): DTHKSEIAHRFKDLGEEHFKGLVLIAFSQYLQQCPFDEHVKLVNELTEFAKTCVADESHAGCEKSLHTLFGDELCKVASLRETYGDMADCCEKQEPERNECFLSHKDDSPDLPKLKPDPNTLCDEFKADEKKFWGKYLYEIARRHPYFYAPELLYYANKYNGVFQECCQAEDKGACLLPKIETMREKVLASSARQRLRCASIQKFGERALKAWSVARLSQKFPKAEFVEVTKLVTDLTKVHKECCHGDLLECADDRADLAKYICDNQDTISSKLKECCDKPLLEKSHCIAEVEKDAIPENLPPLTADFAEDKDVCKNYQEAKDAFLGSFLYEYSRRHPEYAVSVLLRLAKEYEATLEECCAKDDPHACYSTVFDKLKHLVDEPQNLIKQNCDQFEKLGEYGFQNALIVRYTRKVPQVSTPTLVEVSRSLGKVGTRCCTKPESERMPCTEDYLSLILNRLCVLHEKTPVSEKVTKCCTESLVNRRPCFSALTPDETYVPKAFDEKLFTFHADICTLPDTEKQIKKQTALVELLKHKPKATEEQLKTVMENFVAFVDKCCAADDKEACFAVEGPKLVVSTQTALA

B1: 5D2 monoclonal antibody (antibody, mouse IgG2b, kappa, V domains shown)
VH: QVQLQQPGAELVKPGASVKVSCKASGYTFTSYWMHWVKQRPGQGLEWIGRIHLSDSDTNYNQNFKDKATLTVDKSSRTAHMHLSSLTSADSAVYYCAMGGTFQSNYDTYWGQGTLVTVSA
VL: DIQMTQSPASLSASVGETVTITCRASGNIHNYLAWYQQKQGKSPQLLVYNAKTLTDGVPSRFSGSGSGTQYSLKINSLQPEDFGNYYCQHFLYTPYTFGGGTKLEMRR
notes: Mouse IgG2b, kappa, raised against the small molecule emtricitabine (FTC); In the lateral flow assay the antibody was conjugated to gold; also called Mab 5D2; FTC (5D2) monoclonal antibody
- binding result [1]: no binding (tested: 5 ug/ml (coating concentration))
- binding result [2]: no binding (tested: 5 ug/ml (coating concentration))

From patent publication US20210253738A1 (UNITED STATES OF AMERICA AS REPRESENTED BY THE SECRETARY …, published 2021)
